Test results as given in publication PMC8790125.

Target: Rae1–Nup98_(GLEBS) complex, P78406
Assay: ITC

B1: SARS-CoV-1 Orf6CTT (22-mer peptide, residues 42–63 of SARS-CoV-1 Orf6) (peptide)
chain: KPLTKKNYSELDDEEPMELDYP
modifications: not checked
Which Kd does the source give for B1 here?
Its Kd is 278 nM.

What about the stoichiometry N of the same binder?
The stoichiometry N was 1.
